Test results as given in patent US20190092850A1 (NUMAB INNOVATION, published 2019).

Key:
recombinant human TNFα [1] = target: T1, recombinant human TNFα (human, UniProt P01375 77-233); test: cell-based or functional assay
[2] = target: recombinant Cynomolgus monkey TNFα (Cynomolgus monkey (Macaca fascicularis), UniProt P79337 77-233); test: cell-based or functional assay
Rhesus monkey TNFα = Rhesus monkey TNFα (Rhesus monkey (Macaca mulatta), UniProt P48094 77-233); test: cell-based or functional assay
Chain of Rhesus monkey TNFα (P48094 77-233 limits assumed): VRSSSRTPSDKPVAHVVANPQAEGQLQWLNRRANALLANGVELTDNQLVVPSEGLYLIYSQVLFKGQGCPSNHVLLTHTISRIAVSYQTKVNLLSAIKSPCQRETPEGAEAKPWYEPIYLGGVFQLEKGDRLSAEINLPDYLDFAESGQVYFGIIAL

recombinant human TNFα [3] = target: T1, recombinant human TNFα; test: SPR (MASS-1), human TNFα immobilised, scFv injected; screening with 90 nM of scFv
Procedure: (§1) In a second step, for the best performing scFvs, Single Injection Cycle Kinetics (SiCK) were measured from a single injection cycle by simultaneously injecting six analyte samples at different concentrations into each of the eight parallel channels in the MASS-1 system. […] The apparent dissociation (kd) and association (kₐ) rate constants and the apparent dissociation equilibrium constant (KD) were calculated with the MASS-1 analysis software (Analyzer, Sierra Sensors) using one-to-one Langmuir binding model and quality of the fits was monitored based on Chi², which is a measure for the quality of the curve fitting. The smaller the value for the Chi² the more accurate is the fitting to the one-to-one Langmuir binding model. For affinity screenings, results were deemed valid if the Chi² was below 10 for the concentration analyzed. In cases where several scFv concentrations were analyzed, results were deemed valid if the average Chi² over all the concentrations tested was below 10.

recombinant human TNFα [4] = target: T1, recombinant human TNFα; test: SPR (MASS-1), human TNFα immobilised, two-fold serial dilutions of scFv injected
Procedure: Affinity was determined using 2-fold serial dilutions of the respective scFvs.
as §1

T1 sequence (P01375 77-233 limits assumed): as the sequence (P48094 77-233 limits assumed) above, with T44R, N72T, L138R counted along it
Chain of recombinant Cynomolgus monkey TNFα (P79337 77-233 limits assumed): as the sequence (P48094 77-233 limits assumed) above, with L37V counted along it

| Neutralization of TNF in L929 assay, rel. IC50 (IC50, Infliximab (ng/ml)/IC50, scFv (ng/ml)) (recombinant human TNFα [1]) [ratio] | Neutralization of TNF in L929 assay, rel. IC90 (IC90, Infliximab (ng/ml)/IC90, scFv (ng/ml)) (recombinant human TNFα [1]) [ratio] | Species specificity in L929 assay IC50 (ng/ml), human (recombinant human TNFα [1]) [ng/mL] | Species specificity in L929 assay IC50 (ng/ml), cyno [2] [ng/mL] | Species specificity in L929 assay IC50 (ng/ml), rhesus (Rhesus monkey TNFα) [ng/mL] | Kd (recombinant human TNFα [3]) [nM] | koff (recombinant human TNFα [3]) [s⁻¹] | kon (recombinant human TNFα [3]) [M⁻¹ s⁻¹] | Kd (recombinant human TNFα [4]) [nM] | koff (recombinant human TNFα [4]) [s⁻¹] | kon (recombinant human TNFα [4]) [M⁻¹ s⁻¹] | Binder |
| --- | --- | --- | --- | --- | --- | --- | --- | --- | --- | --- | --- |
| 0.6 | 0.2 | 12.1 | 92.1 | 59.7 | 0.7 | 0.00048 | 680000 | – | – | – | humanized scFv 16-19-B11-sc01 (CDR graft) (scFv) scFv: MDIQMTQSPSSLSASVGDRVTITCQASESISSWLAWYQQKPGKAPKLLIYKASTLASGVPSRFSGSGSGTDFTLTISSLQPEDFATYYCQGYYLDSSVDDNVFGGGTKLTVLGGGGGSGGGGSGGGGSGGGGSEVQLVESGGGLVQPGGSLRLSCAASGIDFSTYGISWVRQAPGKGLEWIGYIYPDYGITDYASWVNGRFTISRDNSKNTVYLQMNSLRAEDTAVYYCARSGSYYSRGWGAHYFNLWGQGTLVTVSS |
| 16.2 | 15 | 0.4 | 1.8 | 1 | – | – | – | 0.059 | 5.8e-05 | 970000 | humanized scFv 16-19-B11-sc06 (structural graft) (scFv) scFv: MDIQMTQSPSSLSASVGDRVTINCQASESISSWLAWYQQKPGKRPKLLIYKASTLASGVPSRFSGSGSGTDYTLTISSLQPEDFATYYCQGYYLDSSVDDNVFGGGTKLTVLGGGGGSGGGGSGGGGSGGGGSEVQLVESGGGLVQPGGSLRLSCAASGIDFSTYGISWVRQAPGKGLEWIAYIYPDYGITDYASWVNGRFTISLDNAQNTVYLQMNSLRAEDTAVYYCARSGSYYSRGWGAHYFNLWGQGTLVTVSS |
| 94 | 4.5 | 0.8 | – | – | 0.22 | 0.00016 | 730000 | – | – | – | humanized scFv 16-19-B11-sc02 (structural graft) (scFv) scFv: MDIQMTQSPSSLSASVGDRVTINCQASESISSWLAWYQQKPGKAPKLLIYKASTLASGVPSRFSGSGSGTEFTLTISGLQPADFATYYCQGYYLDSSVDDNVFGGGTKLTVLGGGGGSGGGGSGGGGSGGGGSEVQLVESGGGLVQPGGSLRLSCKASGIDFSTYGISWVRQAPGKGLEWIAYIYPDYGITDYASWVNGRFTISLDNSKNTVYLQMNSLRAEDTAVYYCARSGSYYSRGWGAHYFNLWGQGTLVTVSS |
